According to paper PMC4006922, “The Human Adenovirus E4-ORF1 Protein Subverts Discs Large 1 to Mediate Membrane Recruitment and Dysregulation of Phosphatidylinositol 3-Kinase” (PLoS Pathogens, 2014):

Target: T1, purified, catalytically-active recombinant human p85α:p110α heterodimer (human, UniProt P27986 1-724; P42336 1-1068)
T1 construct: human PI3K regulatory subunit p85α; human PI3K catalytic subunit p110α; also called recombinant human PI3K; purified recombinant PI3K protein; source: bought: SignalChem (co-expression in Sf9 cells, >90% pure)
Experiment: pull-down; purified recombinant human PI3K (1 µg) with GST or GST-Ad9 E4-ORF1 on glutathione-sepharose beads; immunoblot with p85α and p110α antibodies
Details: both partners purified

T1 sequence (P27986 whole entry, chain 1 of 2): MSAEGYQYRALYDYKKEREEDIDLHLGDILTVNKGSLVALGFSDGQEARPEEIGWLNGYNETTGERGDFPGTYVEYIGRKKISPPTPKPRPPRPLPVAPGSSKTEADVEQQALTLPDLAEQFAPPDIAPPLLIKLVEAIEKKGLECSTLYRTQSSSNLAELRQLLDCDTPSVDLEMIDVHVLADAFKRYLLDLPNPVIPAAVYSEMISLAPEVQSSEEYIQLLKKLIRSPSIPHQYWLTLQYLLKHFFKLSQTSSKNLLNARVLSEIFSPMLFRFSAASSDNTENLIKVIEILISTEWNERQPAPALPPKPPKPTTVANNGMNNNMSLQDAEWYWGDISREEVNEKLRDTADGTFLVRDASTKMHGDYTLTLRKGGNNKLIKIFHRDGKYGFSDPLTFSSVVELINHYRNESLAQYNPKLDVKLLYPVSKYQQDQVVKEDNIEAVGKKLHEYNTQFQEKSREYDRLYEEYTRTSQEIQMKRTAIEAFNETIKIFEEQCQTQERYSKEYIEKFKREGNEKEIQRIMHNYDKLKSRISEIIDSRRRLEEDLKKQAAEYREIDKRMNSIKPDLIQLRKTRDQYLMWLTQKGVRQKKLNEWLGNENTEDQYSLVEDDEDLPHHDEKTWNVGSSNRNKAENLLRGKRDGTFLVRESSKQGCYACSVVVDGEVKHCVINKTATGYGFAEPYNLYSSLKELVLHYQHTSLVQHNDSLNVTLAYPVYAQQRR
T1 sequence (P42336 whole entry, chain 2 of 2): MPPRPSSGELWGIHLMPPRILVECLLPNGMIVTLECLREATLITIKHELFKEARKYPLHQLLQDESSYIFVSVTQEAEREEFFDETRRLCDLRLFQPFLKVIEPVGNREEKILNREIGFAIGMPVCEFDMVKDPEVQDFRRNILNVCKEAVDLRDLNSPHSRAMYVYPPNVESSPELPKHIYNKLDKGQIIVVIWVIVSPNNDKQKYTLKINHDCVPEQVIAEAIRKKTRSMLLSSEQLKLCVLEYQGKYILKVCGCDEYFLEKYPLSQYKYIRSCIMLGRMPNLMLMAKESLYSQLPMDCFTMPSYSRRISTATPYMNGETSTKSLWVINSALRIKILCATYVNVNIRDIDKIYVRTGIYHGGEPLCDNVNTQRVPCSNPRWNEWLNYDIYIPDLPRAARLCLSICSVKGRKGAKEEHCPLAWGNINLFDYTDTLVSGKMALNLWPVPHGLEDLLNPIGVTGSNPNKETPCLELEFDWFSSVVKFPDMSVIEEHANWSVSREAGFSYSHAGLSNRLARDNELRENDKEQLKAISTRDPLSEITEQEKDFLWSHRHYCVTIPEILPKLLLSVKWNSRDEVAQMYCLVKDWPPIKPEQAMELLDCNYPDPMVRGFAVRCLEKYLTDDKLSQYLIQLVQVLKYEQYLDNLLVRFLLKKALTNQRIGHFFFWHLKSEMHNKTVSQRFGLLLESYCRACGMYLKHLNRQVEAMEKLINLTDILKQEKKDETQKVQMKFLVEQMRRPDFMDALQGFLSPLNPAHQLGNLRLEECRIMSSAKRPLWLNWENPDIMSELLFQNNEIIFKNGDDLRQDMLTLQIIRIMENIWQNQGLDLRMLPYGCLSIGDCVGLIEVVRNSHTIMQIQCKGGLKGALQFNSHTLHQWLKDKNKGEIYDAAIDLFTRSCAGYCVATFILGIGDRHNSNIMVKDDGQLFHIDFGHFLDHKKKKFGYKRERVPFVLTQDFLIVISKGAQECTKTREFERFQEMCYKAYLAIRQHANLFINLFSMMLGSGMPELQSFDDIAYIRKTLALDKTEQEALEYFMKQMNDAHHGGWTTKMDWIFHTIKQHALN

B1: GST-Ad9 E4-ORF1 fusion protein (natural protein)
chain: MAESLYAFIDSPGGIAPVQEGTSNRYTFFCPESFHIPPHGVVLLHLKVSVLVPTGYQGRFMALNDYHARDILTQSDVIFAGRRQELTVLLFNHTDRFLYVRKGHPVGTLLLERVIFPSVKIATLV
notes: Human adenovirus type 9 (Ad9) E4-ORF1 protein, wild type; also called GST-E4-ORF1; glutathione S-transferase (GST) fused to Ad9 E4-ORF1; source: bacterially expressed fusion protein (plasmid pGEX-2TK with wt E4-ORF1 cDNA), on glutathione-sepharose beads
binding result: binds
